Changes are numbered by the printed parent chain. Numbers in names are those of the source. Read-outs that look alike come from different tables or passages of the source.

For orientation: EC50 (read off the curve) means the concentration that produces a half-maximal response. A low value points to higher potency in that assay. A word on the Kd: it is the concentration at which binding is half-saturated. Broadly, the koff is a measure of how fast the partners let go of each other. For orientation: kon means a measure of how fast the partners come together. As a reminder, the EC50 is the midpoint of the concentration-response curve. A lower EC50 goes with higher potency in that assay.

Assay [1] deals with T1, CD3 antigen expressed on cells (human CD3 epsilon) (human, UniProt P07766 23-207).
T1 construct: also called cell surface CD3 antigen; CD3 on T cells
Put plainly: flow cytometry on CD38(-) primary human T cells, mouse anti-human Fc-APC detection, GeoMean RL-H of singlets. Background: In flow cytometry, cells or beads pass a laser one at a time.

Assay [2] addresses T1, CD3 antigen expressed on cells (human …). The assay is described as above. The source holds these as a separate data set.
In assay [3] the target is T2, Recombinant human CD38-his tag (human, UniProt P28907 43-300).
T2 construct: also called recombinant CD38 antigen; CD38 antigen; not shown: his tag
Nature of the assay: SPR (Biacore T200), antibody as captured ligand, CD38 as sample, 1:1 binding model. (In general: Surface plasmon resonance follows binding to a sensor surface in real time, without labels.)

For assay [4], the target named is T1, CD3 antigen expressed on cells (human …). Put plainly: flow cytometry on CD3-bearing cells (cell type not given).

B1: Hu291 mAb (antibody, V domains shown)
VH: EVQLVQSGAEVKKPGASVKVSCKASGYTFISYTMHWVRQAPGQGLEWMGYINPRSGYTHYNQKLKDKATLTADKSASTAYMELSSLRSEDTAVYYCARSAYYDYDGFAYWGQGTLVTVSS
VL: DIQMTQSPSSLSASVGDRVTITCSASSSVSYMNWYQQKPGKAPKRLIYDTSKLASGVPSRFSGSGSGTDFTLTISSLQPEDFATYYCQQWSSNPPTFGGGTKVEIK
notes: also called Hum291 anti-CD3 mAb; HuM291 mAb
In the case of B1, the entries for the “EC50 (read off the curve)” value in assay [1] and in assay [2] were ~0.02 ng/mL and ~0.008 ng/mL, respectively.

B2: CD38 D8-3A1/CD3 mAb (antibody, V domains shown)
VH: QVQLVESGGGVVQPGGSLRLSCAASGFNVRTKYVHWVRQAPGKGLEWVSGIYSDPYTSYAYSDSVKGRFTISRDMSKNTVYLQMNRLRAEDTAVYYCARETNTGFSNSWYLDFWGQGTLVTVSS
VL: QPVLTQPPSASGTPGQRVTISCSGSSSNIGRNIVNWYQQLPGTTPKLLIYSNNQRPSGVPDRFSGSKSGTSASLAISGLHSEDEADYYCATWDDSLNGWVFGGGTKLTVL
notes: stands beside the row 'CD38 D8-3A1/CD3 IgG-scFv', so it is another molecule than m27
Regarding B2, in assay [3], the Kd stood at 9.14 nM, the koff was 0.00372 s⁻¹ and the kon amounted to 406000 M⁻¹ s⁻¹.

B3: CD38 A2-3H10m1 assembled with CD3-scFv tsm #5 (bispecific antibody, human IgG1, lambda, L234A L235A)
chain: EVQLVQSGAEVKKPGASVKVSCKASGYTFISYTMHWVRQAPGQGLEWMGYINPRSGYTHYNQKLKDRATLTADKSASTAYMELSSLRSEDTAVYYCARSAYYDYDGFAYWGQGTLVTVSSGGGGSGGGGSGGGGSGGGGSDIQMTQSPSSLSASVGDRVTITCSASSSVSYMNWYQQKPGKAPKRLIYDTSKLASGVPSRFSGSGSGTDFTLTISSLQPEDFATYYCQQWSSNPPTFGGGTKVEIKGGSGGDKTHTCPPCPAPEAAGGPSVFLFPPKPKDTLMISRTPEVTCVVVDVSHEDPEVKFNWYVDGVEVHNAKTKPREEQYNSTYRVVSVLTVLHQDWLNGKEYKCKVSNKALPAPIEKTISKAKGQPREPQVYTLPPSREEMTKNQVSLSCAVKGFYPSDIAVEWESNGQPENNYKTTPPVLDSDGSFFLVSKLTVDKSRWQQGNVFSCSVMHEALHNHYTQKSLSLSPGK
heavy: QVQLVESGGGLVKPGGSLRLSCAASGFTFSDDYMSWIRQAPGKGLEWVASVSNGRPTTYYADSVRGRFTISRDNAKNSLYLQMNSLRAEDTAVYYCAREGWSGEFTDWGQGTLVTVSSASTKGPSVFPLAPSSKSTSGGTAALGCLVKDYFPEPVTVSWNSGALTSGVHTFPAVLQSSGLYSLSSVVTVPSSSLGTQTYICNVNHKPSNTKVDKRVEPKSCDKTHTCPPCPAPEAAGGPSVFLFPPKPKDTLMISRTPEVTCVVVDVSHEDPEVKFNWYVDGVEVHNAKTKPREEQYNSTYRVVSVLTVLHQDWLNGKEYKCKVSNKALPAPIEKTISKAKGQPREPQVYTLPPSREEMTKNQVSLWCLVKGFYPSDIAVEWESNGQPENNYKTTPPVLDSDGSFFLYSKLTVDKSRWQQGNVFSCSVMHEALHNHYTQKSLSLSPGK
light: not shown
B3: the “EC50 (read off the curve)” value in assay [2] is ~0.1 ng/mL.

B4: CD38 D8-3A1/CD3 (M48I/K67R) bispecific antibody (bispecific antibody, human IgG1, lambda, L234A L235A)
chain: B3 chain with M48I
heavy: QVQLVESGGGVVQPGGSLRLSCAASGFNVRTKYVHWVRQAPGKGLEWVSGIYSDPYTSYAYSDSVKGRFTISRDMSKNTVYLQMNRLRAEDTAVYYCARETNTGFSNSWYLDFWGQGTLVTVSSASTKGPSVFPLAPSSKSTSGGTAALGCLVKDYFPEPVTVSWNSGALTSGVHTFPAVLQSSGLYSLSSVVTVPSSSLGTQTYICNVNHKPSNTKVDKRVEPKSCDKTHTCPPCPAPEAAGGPSVFLFPPKPKDTLMISRTPEVTCVVVDVSHEDPEVKFNWYVDGVEVHNAKTKPREEQYNSTYRVVSVLTVLHQDWLNGKEYKCKVSNKALPAPIEKTISKAKGQPREPQVYTLPPSREEMTKNQVSLWCLVKGFYPSDIAVEWESNGQPENNYKTTPPVLDSDGSFFLYSKLTVDKSRWQQGNVFSCSVMHEALHNHYTQKSLSLSPGK
light: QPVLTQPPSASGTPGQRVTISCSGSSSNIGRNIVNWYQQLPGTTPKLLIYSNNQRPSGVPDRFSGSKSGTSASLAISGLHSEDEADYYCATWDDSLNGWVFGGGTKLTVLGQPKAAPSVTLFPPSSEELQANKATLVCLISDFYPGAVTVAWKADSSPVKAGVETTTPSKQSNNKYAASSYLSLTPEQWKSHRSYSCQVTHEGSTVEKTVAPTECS
Regarding B4, in assay [3], the Kd was found to be 4.95 nM, the koff was determined as 0.00393 s⁻¹ and the kon came to 794000 M⁻¹ s⁻¹.

B5: CD3-tsm#7 (WT) scFv-Fc fusion (Fc fusion)
chain: B3 chain with R67K
notes: Wild type HuM291 VH; As for CD3-tsm#1: scFv g1 Fc fusion chain; also called wild type Hum291 scFv
The molecule B5 displayed an EC50 in assay [4] of 200 ng/mL.

B6: CD3-tsm#1 (M48I/K67R) scFv-Fc fusion (Fc fusion)
chain: B3 chain with M48I
notes: also called CD3 scFv-Fc fusion, VH variant M48I/K67R, tsm #1
The molecule B6 came in with an EC50 in assay [4] of 200 ng/mL.

B7: CD38 A2-3H10m1 assembled with CD3-scFv tsm #3 (bispecific antibody, human IgG1, lambda, L234A L235A)
chain: B3 chain with M48I, R67K
heavy: B3 heavy
light: not shown
As for B7, the “EC50 (read off the curve)” value in assay [1] is ~0.2 ng/mL.

B8: CD38 A2/CD3 (M48I/K67R) bispecific antibody (bispecific antibody, human IgG1, lambda, L234A L235A)
chain: B3 chain with M48I
heavy: B3 heavy with G100D, S102G
light: not shown
For B8, in assay [3], the Kd turned out to be 12.3 nM, the koff was 0.00637 s⁻¹ and the kon turned out to be 517000 M⁻¹ s⁻¹.

B9: CD3-tsm#2 (I30V/K67R) scFv-Fc fusion (Fc fusion)
chain: B3 chain with I30V
notes: As for CD3-tsm#1: scFv g1 Fc fusion chain
B9 showed an EC50 in assay [4] of 1500 ng/mL.

B10: CD38 D8/CD3 (M48I/K67R) bispecific antibody (bispecific antibody, human IgG1, lambda, L234A L235A)
chain: B3 chain with M48I
heavy: B4 heavy with N28I, R30S, K32N
light: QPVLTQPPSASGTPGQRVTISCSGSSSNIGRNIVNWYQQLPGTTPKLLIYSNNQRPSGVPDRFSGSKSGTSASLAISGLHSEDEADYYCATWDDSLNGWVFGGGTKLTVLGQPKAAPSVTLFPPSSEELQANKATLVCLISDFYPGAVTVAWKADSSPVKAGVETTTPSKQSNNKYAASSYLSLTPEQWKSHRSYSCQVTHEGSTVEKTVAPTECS
For B10, in assay [3], the Kd was determined as 20.3 nM, the koff was 0.011 s⁻¹ and the kon is 541000 M⁻¹ s⁻¹.

B11: CD38 D8-3E1/CD3 (M48I/K67R) bispecific antibody (bispecific antibody, human IgG1, lambda, L234A L235A)
chain: B3 chain with M48I
heavy: B4 heavy with G26K, F27L, R30S, T31P
light: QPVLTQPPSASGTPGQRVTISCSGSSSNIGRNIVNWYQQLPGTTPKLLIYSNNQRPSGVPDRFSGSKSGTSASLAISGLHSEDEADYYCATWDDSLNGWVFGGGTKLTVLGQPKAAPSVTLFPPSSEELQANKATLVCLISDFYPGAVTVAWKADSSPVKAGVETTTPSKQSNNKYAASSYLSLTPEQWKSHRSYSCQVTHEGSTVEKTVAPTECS
notes: also called CD38 D8-3E1/CD3 (M481/K67R)
B11: in assay [3], the Kd is 6.55 nM, the koff is 0.00565 s⁻¹ and the kon is 862000 M⁻¹ s⁻¹.

B12: CD38 A2-3H10m1 assembled with CD3-scFv tsm #6 (bispecific antibody, human IgG1, lambda, L234A L235A)
chain: B3 chain with I30V, R67K
heavy: B3 heavy
light: not shown
Consider B12, for which the “EC50 (read off the curve)” value in assay [2] is ~0.1 ng/mL.

B13: CD3-tsm#6 (I30V) scFv-Fc fusion (Fc fusion)
chain: B3 chain with I30V, R67K
notes: As for CD3-tsm#1: scFv g1 Fc fusion chain; also called CD3-tsm#6 ( (BOV))
Molecule B13 showed an EC50 in assay [4] of 100 ng/mL.

B14: CD3-tsm#4 (I30V/M48I/K67R) scFv-Fc fusion (Fc fusion)
chain: B3 chain with I30V, M48I
notes: as for B9
On to B14, for which, in assay [4], it took 100 ng/mL to reach a half-maximal effect (EC50).

B15: CD38 A2-3H10m1 assembled with CD3-scFv tsm #4 (bispecific antibody, human IgG1, lambda, L234A L235A)
chain: B3 chain with I30V, M48I
heavy: B3 heavy
light: not shown
Regarding B15, the “EC50 (read off the curve)” value in assay [1] is ~0.1 ng/mL.

B16: CD3-tsm#5 (K67R) scFv-Fc fusion (Fc fusion)
chain: B3 chain
notes: as for B9
In turn, B16 displayed an EC50 in assay [4] of 100 ng/mL.

B17: CD3-tsm#3 (M48I) scFv-Fc fusion (Fc fusion)
chain: B3 chain with M48I, R67K
notes: as for B9
In the case of B17, the EC50 in assay [4] turned out to be 200 ng/mL. This EC50 lies about 2-fold higher than the previous one.

B18: CD38 D8-1B5/CD3 (M48I/K67R) bispecific antibody (bispecific antibody, human IgG1, lambda, L234A L235A)
chain: B3 chain with M48I
heavy: B4 heavy with F27L, V29A, K32N
light: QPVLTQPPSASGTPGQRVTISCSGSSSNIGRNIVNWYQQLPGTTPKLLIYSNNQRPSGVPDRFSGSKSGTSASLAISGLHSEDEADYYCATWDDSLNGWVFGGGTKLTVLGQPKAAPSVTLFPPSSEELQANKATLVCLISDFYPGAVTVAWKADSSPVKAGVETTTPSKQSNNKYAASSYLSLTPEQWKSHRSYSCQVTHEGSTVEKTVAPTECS
Turning to B18, in assay [3], the Kd was found to be 4.52 nM, the koff was 0.00388 s⁻¹ and the kon came to 859000 M⁻¹ s⁻¹.

B19: CD38 A2-3H10m1 assembled with CD3-scFv tsm #7 (bispecific antibody, human IgG1, lambda, L234A L235A)
chain: B3 chain with R67K
heavy: B3 heavy
light: not shown
notes: tsm #7 carries the wild type HuM291 VH
B19: the “EC50 (read off the curve)” value in assay [2] was ~0.2 ng/mL.

B20: CD38A2-3H10m1/CD3tsm #1-scFvg1LALA-knob-in-hole bispecific antibody (bispecific antibody, human IgG1, lambda, L234A L235A)
chain: B3 chain with M48I
heavy: B3 heavy
light: not shown
notes: Three chains: anti-CD3 scFv-Fc (hole, LALA), anti-CD38 heavy chain (knob, LALA) and anti-CD38 lambda light chain; also called CD38 A2-3H10m1 assembled with CD3-scFv tsm #1; CD38A2-3H10m1/CD3tsm #1 IgG-scFv
Consider B20, for which the “EC50 (read off the curve)” value in assay [1] was ~0.2 ng/mL. Also, in assay [3], the dissociation constant (Kd) was determined as 1.51 nM, the koff stood at 0.00203 s⁻¹ and the kon was found to be 1.35e+06 M⁻¹ s⁻¹.

B21: CD38 A2-3H10m1 assembled with CD3-scFv tsm #2 (bispecific antibody, human IgG1, lambda, L234A L235A)
chain: B3 chain with I30V
heavy: B3 heavy
light: not shown
For B21, the “EC50 (read off the curve)” value in assay [1] was ~1 ng/mL.

For the origin of these results see patent publication US20220363758A1 (SORRENTO THERAPEUTICS, published 2022).
